Measurements reported in US20100209439A1 (FORERUNNER PHARMA RESEARCH, published 2010).

Target: T1, Recombinant human Prominin-1 with C-terminal FLAG-tag, forcedly expressed on DG44 cells (human, UniProt O43490 20-865)
T1 construct: whole, on cells; Expressed in DG44 cells; also called Prominin-1 recombinant protein; cells forcedly expressing Prominin-1; not shown: FLAG-tag artificially added to the C terminus
T1 sequence (looked up): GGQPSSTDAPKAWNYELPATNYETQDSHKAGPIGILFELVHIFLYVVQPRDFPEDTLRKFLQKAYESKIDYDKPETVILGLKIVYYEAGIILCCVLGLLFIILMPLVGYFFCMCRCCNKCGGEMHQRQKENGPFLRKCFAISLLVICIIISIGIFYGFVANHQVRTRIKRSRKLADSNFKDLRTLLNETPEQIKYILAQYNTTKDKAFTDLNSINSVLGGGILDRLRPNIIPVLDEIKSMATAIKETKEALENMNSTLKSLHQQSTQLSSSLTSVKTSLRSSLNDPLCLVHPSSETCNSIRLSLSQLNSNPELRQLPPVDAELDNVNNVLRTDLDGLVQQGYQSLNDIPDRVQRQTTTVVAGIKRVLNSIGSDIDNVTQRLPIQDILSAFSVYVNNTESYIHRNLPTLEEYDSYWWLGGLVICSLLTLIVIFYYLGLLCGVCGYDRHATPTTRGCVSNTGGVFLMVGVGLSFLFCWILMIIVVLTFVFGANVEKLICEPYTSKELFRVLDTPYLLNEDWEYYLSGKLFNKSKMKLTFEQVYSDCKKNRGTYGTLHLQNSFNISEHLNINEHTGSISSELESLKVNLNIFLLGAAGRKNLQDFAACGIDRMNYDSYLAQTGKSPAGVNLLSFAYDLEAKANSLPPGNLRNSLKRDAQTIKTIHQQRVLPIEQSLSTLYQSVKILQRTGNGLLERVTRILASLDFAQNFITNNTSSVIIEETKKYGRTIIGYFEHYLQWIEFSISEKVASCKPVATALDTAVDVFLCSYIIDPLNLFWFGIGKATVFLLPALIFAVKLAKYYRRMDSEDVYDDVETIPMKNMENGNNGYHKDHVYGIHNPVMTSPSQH
Test: flow cytometry on DG44 cells forcedly expressing FLAG-tagged human Prominin-1

binding result: binds
B1: AC133.1 antibody (mouse IgG1, produced by hybridoma HB-12346) (antibody, V domains shown)
VH: QVQLQQSGAELVRPGASVKLSCKASGYTFSDFEMHWVKQTPVHGLEWIGDIDPGTGDTAYNLKFKGKATLTTDKSSSTAYMELRSLTSEDSAVYYCTLGAFVYWGQGTLVTVSA
VL: DVVVTQTPLSLPVSFGDQVSISCRSSQSLANSYGNTYLSWYLHKPGQSPQLLIYGISNRFSGVPDRFSGSGSGTDFTLKISTIKPEDLGMYYCLQGTHQPYTFGGGTKLEIKR
notes: The rest is mouse IgG1 heavy chain and Ig kappa light chain; Purified from hybridoma supernatant on Protein G; also called AC133 antibody; A133.1 antibody
